Measured values as given in patent CN111704670A (MABWELL SHANGHAI BIOSCIENCE CO LTD; JIANGSU MABWELL NEW …, dated 2020).

T1: RANKL-兔Fc (rabbit, UniProt O14788 140-317 (human entry), limits assumed)
T1 sequence (looked up): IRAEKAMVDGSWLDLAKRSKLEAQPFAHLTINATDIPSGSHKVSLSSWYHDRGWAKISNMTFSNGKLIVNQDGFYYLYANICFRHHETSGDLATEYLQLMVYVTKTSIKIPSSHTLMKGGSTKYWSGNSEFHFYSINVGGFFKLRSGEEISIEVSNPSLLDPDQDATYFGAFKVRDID

B1: 重组人源抗RANKL抗体IgG2型二硫键异构体IgG2-B型 (antibody, V domains shown)
VH: EVQLLESGGGLVQPGGSLRLSCAASGFTFSSYAMSWVRQAPGKGLEWVSGITGSGGSTYYADSVKGRFTISRDNSKNTLYLQMNSLRAEDTAVYYCAKDPGTTVIMSWFDPWGQGTLVTVSS
VL: EIVLTQSPGTLSLSPGERATLSCRASQSVRGRYLAWYQQKPGQAPRLLIYGASSRATGIPDRFSGSGTDFTLTISRLEPEDFAVFYCQQYGSSPRTFGQGTKVEIKR
B2: 重组人源抗RANKL单克隆抗体IgG2型 (TK006) (antibody, V domains shown)
VH: B1 VH
VL: B1 VL
B3: 重组人源抗RANKL抗体IgG2型二硫键异构体IgG2-A型 (antibody, V domains shown)
VH: B1 VH
VL: B1 VL

Target: T1, RANKL-兔Fc
Assay: cell-based or functional assay

Binder	异构体生物活性 IC50	生物学活性量效曲线 IC50 (RAW264.7 TRAP/pNPP assay); 原液 lot 20131201	生物学活性量效曲线 IC50 (RAW264.7 TRAP/pNPP assay); 原液 lot 20140201	生物学活性量效曲线 IC50 (RAW264.7 TRAP/pNPP assay); 工作参考品 lot 20140301, plate with Denosumab	生物学活性量效曲线 IC50 (RAW264.7 TRAP/pNPP assay); 工作参考品 lot 20140301, plate with lot 20131201	生物学活性量效曲线 IC50 (RAW264.7 TRAP/pNPP assay); 工作参考品 lot 20140301, plate with lot 20140201
B1	3 ng/mL	–	–	–	–	–
B2	–	1.07 ng/ml	1.63 ng/ml	1.11 ng/ml	1.33 ng/ml	1.34 ng/ml
B3	2.89 ng/mL	–	–	–	–	–
